Reference: patent US20150344570A1 (published 2015)

T1: FcγRIIb (human, UniProt P31994 43-217)
T1 construct: extracellular domain; also called FcgRIIb; CD32B
T1 sequence (looked up): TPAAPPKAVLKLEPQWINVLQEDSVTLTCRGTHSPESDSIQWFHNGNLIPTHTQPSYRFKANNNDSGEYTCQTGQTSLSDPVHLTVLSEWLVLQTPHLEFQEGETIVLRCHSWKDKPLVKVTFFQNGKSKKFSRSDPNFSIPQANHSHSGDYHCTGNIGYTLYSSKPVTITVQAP


How the values were obtained:
FcγRIa [1] = target: T2, FcγRIa (human, UniProt P12314 16-292); assay: ratio of He/Con_1a to He/Con_2b (FcγRIa over FcγRIIb), SPR
T2 construct: extracellular domain; also called FcgRI; CD64
T2 sequence (P12314 16-292): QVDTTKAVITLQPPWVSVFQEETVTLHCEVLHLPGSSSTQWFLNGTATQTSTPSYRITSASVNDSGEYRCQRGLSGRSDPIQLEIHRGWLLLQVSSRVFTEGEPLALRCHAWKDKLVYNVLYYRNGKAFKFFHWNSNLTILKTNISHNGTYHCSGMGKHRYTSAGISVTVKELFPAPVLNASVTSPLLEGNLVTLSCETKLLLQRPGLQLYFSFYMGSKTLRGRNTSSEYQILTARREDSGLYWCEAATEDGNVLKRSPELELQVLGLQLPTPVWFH
Procedure, shortened: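 Biacore T100 SPR at 25 °C in HBS-EP+ running buffer. Antibodies were captured on antigen-peptide chips (amine-coupled on CM5 or biotinylated on SA) and each FcγR, diluted in running buffer, flowed as analyte; surfaces regenerated with 10 mM glycine-HCl, pH 1.5.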

FcγRIa [2] = target: T2, FcγRIa; assay: SPR (Biacore), captured antibody, soluble FcγR; relative to GpH7-A5/GpH7-B3/GpL16-k0 = 100
FcγRIIb = target: T1, FcγRIIb; assay: as above

Row | He_1a/2b (Ia/IIb) (FcγRIa [1]) | He/Con_1a (FcγRIa [2]) | He/Con_2b (FcγRIIb) | Binder
1 | 2.94 | 85.3 % of control | 29.1 % of control | GpH7-A5/GpH7-B3 variant P329_06M/GpL16-k0 (antibody, human IgG1, kappa, He Ab; mutation in the GpH7-B3 chain only; also called He Ab) heavy 1: not shown heavy 2: not shown light: DIVMTQSPLSLPVTPGEPASISCQASESLVHSNRNTYLHWYLQKPGQSPQLLIYKVSNRFSGVPDRFSGSGSGTDFTLKISRVEAEDVGVYYCSQNTHVPPTFGQGTKVEIERTVAAPSVFIFPPSDEQLKSGTASVVCLLNNFYPREAKVQWKVDNALQSGNSQESVTEQDSKDSTYSLSSTLTLSKADYEKHKVYACEVTHQGLSSPVTKSFNRGEC
2 | 2.72 | 94.1 % of control | 34.6 % of control | GpH7-A5/GpH7-B3 variant P329_07I/GpL16-k0 (antibody, human IgG1, kappa, He Ab; mutation in the GpH7-B3 chain only; also called He Ab) heavy 1: not shown heavy 2: not shown light: DIVMTQSPLSLPVTPGEPASISCQASESLVHSNRNTYLHWYLQKPGQSPQLLIYKVSNRFSGVPDRFSGSGSGTDFTLKISRVEAEDVGVYYCSQNTHVPPTFGQGTKVEIERTVAAPSVFIFPPSDEQLKSGTASVVCLLNNFYPREAKVQWKVDNALQSGNSQESVTEQDSKDSTYSLSSTLTLSKADYEKHKVYACEVTHQGLSSPVTKSFNRGEC
3 | 2.95 | 85.7 % of control | 29.1 % of control | GpH7-A5/GpH7-B3 variant P329_08L/GpL16-k0 (antibody, human IgG1, kappa, He Ab; mutation in the GpH7-B3 chain only; also called He Ab) heavy 1: not shown heavy 2: not shown light: DIVMTQSPLSLPVTPGEPASISCQASESLVHSNRNTYLHWYLQKPGQSPQLLIYKVSNRFSGVPDRFSGSGSGTDFTLKISRVEAEDVGVYYCSQNTHVPPTFGQGTKVEIERTVAAPSVFIFPPSDEQLKSGTASVVCLLNNFYPREAKVQWKVDNALQSGNSQESVTEQDSKDSTYSLSSTLTLSKADYEKHKVYACEVTHQGLSSPVTKSFNRGEC
4 | 1.45 | 77.6 % of control | 53.5 % of control | GpH7-A5/GpH7-B3 variant P329_09D/GpL16-k0 (antibody, human IgG1, kappa, He Ab; mutation in the GpH7-B3 chain only; also called He Ab) heavy 1: not shown heavy 2: not shown light: DIVMTQSPLSLPVTPGEPASISCQASESLVHSNRNTYLHWYLQKPGQSPQLLIYKVSNRFSGVPDRFSGSGSGTDFTLKISRVEAEDVGVYYCSQNTHVPPTFGQGTKVEIERTVAAPSVFIFPPSDEQLKSGTASVVCLLNNFYPREAKVQWKVDNALQSGNSQESVTEQDSKDSTYSLSSTLTLSKADYEKHKVYACEVTHQGLSSPVTKSFNRGEC
5 | 1.5 | 78.8 % of control | 52.7 % of control | GpH7-A5/GpH7-B3 variant P329_10E/GpL16-k0 (antibody, human IgG1, kappa, He Ab; mutation in the GpH7-B3 chain only; also called He Ab) heavy 1: not shown heavy 2: not shown light: DIVMTQSPLSLPVTPGEPASISCQASESLVHSNRNTYLHWYLQKPGQSPQLLIYKVSNRFSGVPDRFSGSGSGTDFTLKISRVEAEDVGVYYCSQNTHVPPTFGQGTKVEIERTVAAPSVFIFPPSDEQLKSGTASVVCLLNNFYPREAKVQWKVDNALQSGNSQESVTEQDSKDSTYSLSSTLTLSKADYEKHKVYACEVTHQGLSSPVTKSFNRGEC
6 | 4.17 | 70.4 % of control | 16.9 % of control | GpH7-A5/GpH7-B3 variant P329_11K/GpL16-k0 (antibody, human IgG1, kappa, He Ab; mutation in the GpH7-B3 chain only; also called He Ab) heavy 1: not shown heavy 2: not shown light: DIVMTQSPLSLPVTPGEPASISCQASESLVHSNRNTYLHWYLQKPGQSPQLLIYKVSNRFSGVPDRFSGSGSGTDFTLKISRVEAEDVGVYYCSQNTHVPPTFGQGTKVEIERTVAAPSVFIFPPSDEQLKSGTASVVCLLNNFYPREAKVQWKVDNALQSGNSQESVTEQDSKDSTYSLSSTLTLSKADYEKHKVYACEVTHQGLSSPVTKSFNRGEC
7 | 4.22 | 74.3 % of control | 17.6 % of control | GpH7-A5/GpH7-B3 variant P329_12R/GpL16-k0 (antibody, human IgG1, kappa, He Ab; mutation in the GpH7-B3 chain only; also called He Ab) heavy 1: not shown heavy 2: not shown light: DIVMTQSPLSLPVTPGEPASISCQASESLVHSNRNTYLHWYLQKPGQSPQLLIYKVSNRFSGVPDRFSGSGSGTDFTLKISRVEAEDVGVYYCSQNTHVPPTFGQGTKVEIERTVAAPSVFIFPPSDEQLKSGTASVVCLLNNFYPREAKVQWKVDNALQSGNSQESVTEQDSKDSTYSLSSTLTLSKADYEKHKVYACEVTHQGLSSPVTKSFNRGEC
8 | 2.27 | 93.3 % of control | 41 % of control | GpH7-A5/GpH7-B3 variant P329_13S/GpL16-k0 (antibody, human IgG1, kappa, He Ab; mutation in the GpH7-B3 chain only; also called He Ab) heavy 1: not shown heavy 2: not shown light: DIVMTQSPLSLPVTPGEPASISCQASESLVHSNRNTYLHWYLQKPGQSPQLLIYKVSNRFSGVPDRFSGSGSGTDFTLKISRVEAEDVGVYYCSQNTHVPPTFGQGTKVEIERTVAAPSVFIFPPSDEQLKSGTASVVCLLNNFYPREAKVQWKVDNALQSGNSQESVTEQDSKDSTYSLSSTLTLSKADYEKHKVYACEVTHQGLSSPVTKSFNRGEC

The next lines start with the binder.

Row | Binder | He_1a/2b (Ia/IIb) (FcγRIa [1]) | He/Con_1a (FcγRIa [2]) | He/Con_2b (FcγRIIb)
9 | GpH7-A5/GpH7-B3 variant I336_13S/GpL16-k0 (antibody, human IgG1, kappa, He Ab; mutation in the GpH7-B3 chain only; also called He Ab) heavy 1: not shown heavy 2: not shown light: DIVMTQSPLSLPVTPGEPASISCQASESLVHSNRNTYLHWYLQKPGQSPQLLIYKVSNRFSGVPDRFSGSGSGTDFTLKISRVEAEDVGVYYCSQNTHVPPTFGQGTKVEIERTVAAPSVFIFPPSDEQLKSGTASVVCLLNNFYPREAKVQWKVDNALQSGNSQESVTEQDSKDSTYSLSSTLTLSKADYEKHKVYACEVTHQGLSSPVTKSFNRGEC | 1.22 | 102 % of control | 83.7 % of control
10 | GpH7-A5/GpH7-B3 variant I336_15Y/GpL16-k0 (antibody, human IgG1, kappa, He Ab; mutation in the GpH7-B3 chain only; also called He Ab) heavy 1: not shown heavy 2: not shown light: DIVMTQSPLSLPVTPGEPASISCQASESLVHSNRNTYLHWYLQKPGQSPQLLIYKVSNRFSGVPDRFSGSGSGTDFTLKISRVEAEDVGVYYCSQNTHVPPTFGQGTKVEIERTVAAPSVFIFPPSDEQLKSGTASVVCLLNNFYPREAKVQWKVDNALQSGNSQESVTEQDSKDSTYSLSSTLTLSKADYEKHKVYACEVTHQGLSSPVTKSFNRGEC | 1.51 | 103 % of control | 68.2 % of control
11 | GpH7-A5/GpH7-B3 variant I336_19Q/GpL16-k0 (antibody, human IgG1, kappa, He Ab; mutation in the GpH7-B3 chain only; also called He Ab) heavy 1: not shown heavy 2: not shown light: DIVMTQSPLSLPVTPGEPASISCQASESLVHSNRNTYLHWYLQKPGQSPQLLIYKVSNRFSGVPDRFSGSGSGTDFTLKISRVEAEDVGVYYCSQNTHVPPTFGQGTKVEIERTVAAPSVFIFPPSDEQLKSGTASVVCLLNNFYPREAKVQWKVDNALQSGNSQESVTEQDSKDSTYSLSSTLTLSKADYEKHKVYACEVTHQGLSSPVTKSFNRGEC | 1.78 | 104 % of control | 58.2 % of control
12 | GpH7-A5/GpH7-B3 variant I336_20W/GpL16-k0 (antibody, human IgG1, kappa, He Ab; mutation in the GpH7-B3 chain only; also called He Ab) heavy 1: not shown heavy 2: not shown light: DIVMTQSPLSLPVTPGEPASISCQASESLVHSNRNTYLHWYLQKPGQSPQLLIYKVSNRFSGVPDRFSGSGSGTDFTLKISRVEAEDVGVYYCSQNTHVPPTFGQGTKVEIERTVAAPSVFIFPPSDEQLKSGTASVVCLLNNFYPREAKVQWKVDNALQSGNSQESVTEQDSKDSTYSLSSTLTLSKADYEKHKVYACEVTHQGLSSPVTKSFNRGEC | 4.28 | 86.7 % of control | 20.3 % of control
13 | GpH7-A5/GpH7-B3 variant L328_01G/GpL16-k0 (antibody, human IgG1, kappa, He Ab; mutation in the GpH7-B3 chain only; also called He Ab) heavy 1: not shown heavy 2: not shown light: DIVMTQSPLSLPVTPGEPASISCQASESLVHSNRNTYLHWYLQKPGQSPQLLIYKVSNRFSGVPDRFSGSGSGTDFTLKISRVEAEDVGVYYCSQNTHVPPTFGQGTKVEIERTVAAPSVFIFPPSDEQLKSGTASVVCLLNNFYPREAKVQWKVDNALQSGNSQESVTEQDSKDSTYSLSSTLTLSKADYEKHKVYACEVTHQGLSSPVTKSFNRGEC | 1.21 | 97.2 % of control | 80.2 % of control
14 | GpH7-A5/GpH7-B3 variant L328_05P/GpL16-k0 (antibody, human IgG1, kappa, He Ab; mutation in the GpH7-B3 chain only; also called He Ab) heavy 1: not shown heavy 2: not shown light: DIVMTQSPLSLPVTPGEPASISCQASESLVHSNRNTYLHWYLQKPGQSPQLLIYKVSNRFSGVPDRFSGSGSGTDFTLKISRVEAEDVGVYYCSQNTHVPPTFGQGTKVEIERTVAAPSVFIFPPSDEQLKSGTASVVCLLNNFYPREAKVQWKVDNALQSGNSQESVTEQDSKDSTYSLSSTLTLSKADYEKHKVYACEVTHQGLSSPVTKSFNRGEC | 1.42 | 92.2 % of control | 65.1 % of control
15 | GpH7-A5/GpH7-B3 variant L328_18N/GpL16-k0 (antibody, human IgG1, kappa, He Ab; mutation in the GpH7-B3 chain only; also called He Ab) heavy 1: not shown heavy 2: not shown light: DIVMTQSPLSLPVTPGEPASISCQASESLVHSNRNTYLHWYLQKPGQSPQLLIYKVSNRFSGVPDRFSGSGSGTDFTLKISRVEAEDVGVYYCSQNTHVPPTFGQGTKVEIERTVAAPSVFIFPPSDEQLKSGTASVVCLLNNFYPREAKVQWKVDNALQSGNSQESVTEQDSKDSTYSLSSTLTLSKADYEKHKVYACEVTHQGLSSPVTKSFNRGEC | 1.22 | 98.7 % of control | 80.8 % of control
16 | GpH7-A5/GpH7-B3 variant P329_02A/GpL16-k0 (antibody, human IgG1, kappa, He Ab; mutation in the GpH7-B3 chain only; also called He Ab) heavy 1: not shown heavy 2: not shown light: DIVMTQSPLSLPVTPGEPASISCQASESLVHSNRNTYLHWYLQKPGQSPQLLIYKVSNRFSGVPDRFSGSGSGTDFTLKISRVEAEDVGVYYCSQNTHVPPTFGQGTKVEIERTVAAPSVFIFPPSDEQLKSGTASVVCLLNNFYPREAKVQWKVDNALQSGNSQESVTEQDSKDSTYSLSSTLTLSKADYEKHKVYACEVTHQGLSSPVTKSFNRGEC | 2.52 | 102 % of control | 40.5 % of control
17 | GpH7-A5/GpH7-B3 variant P329_03V/GpL16-k0 (antibody, human IgG1, kappa, He Ab; mutation in the GpH7-B3 chain only; also called He Ab) heavy 1: not shown heavy 2: not shown light: DIVMTQSPLSLPVTPGEPASISCQASESLVHSNRNTYLHWYLQKPGQSPQLLIYKVSNRFSGVPDRFSGSGSGTDFTLKISRVEAEDVGVYYCSQNTHVPPTFGQGTKVEIERTVAAPSVFIFPPSDEQLKSGTASVVCLLNNFYPREAKVQWKVDNALQSGNSQESVTEQDSKDSTYSLSSTLTLSKADYEKHKVYACEVTHQGLSSPVTKSFNRGEC | 2.53 | 97.4 % of control | 38.5 % of control
18 | GpH7-A5/GpH7-B3 variant P329_04F/GpL16-k0 (antibody, human IgG1, kappa, He Ab; mutation in the GpH7-B3 chain only; also called He Ab) heavy 1: not shown heavy 2: not shown light: DIVMTQSPLSLPVTPGEPASISCQASESLVHSNRNTYLHWYLQKPGQSPQLLIYKVSNRFSGVPDRFSGSGSGTDFTLKISRVEAEDVGVYYCSQNTHVPPTFGQGTKVEIERTVAAPSVFIFPPSDEQLKSGTASVVCLLNNFYPREAKVQWKVDNALQSGNSQESVTEQDSKDSTYSLSSTLTLSKADYEKHKVYACEVTHQGLSSPVTKSFNRGEC | 2.88 | 92.7 % of control | 32.2 % of control
